Tested on: T1, QseB (rQseB) (Glaesserella parasuis serovar 5 strain CF7066), ORF:6fe33d28
T1 sequence: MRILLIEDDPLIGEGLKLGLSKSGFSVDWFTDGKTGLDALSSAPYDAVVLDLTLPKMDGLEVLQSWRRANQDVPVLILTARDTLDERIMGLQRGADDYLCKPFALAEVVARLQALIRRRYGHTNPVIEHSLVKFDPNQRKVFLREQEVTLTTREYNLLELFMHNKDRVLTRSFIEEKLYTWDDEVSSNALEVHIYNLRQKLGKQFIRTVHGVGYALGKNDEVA
Test: EMSA
Conditions: 50 mM Tris, 10 mM MgCl2, 0.1 mM DTT

Row | Sequence | binding
1 | AAATTGCTCCTAGTGTTTATTAGTAAAAGCATTATTGCTTTGTTGAGTGTATTAAAACAGAGAAATCTTAAGAAAGTCTTAAGATAAAAAAATTTATTTTTAGACAAAATCTAATAAAAAAGCGGCAAGATTCGTAAATCCTACCGCTTAGATCACATTATGAAAAAATTAGAATCTATAGTTTGCCCCAATAA (double strand) [qseB promoter (Cy5.5-qseB)] | binds
2 | GAAGAACTTACGCTGAGTTGTTTAAATAGCTCGTTGAGCAAGGTGAATCCTCAGAAGAGTATGTCGAAGTAATGGGGCATATGCAAGTAGAAATAGATTTAGAAATGATCAAAACCTGAATCTGAAATATTATTTTAAATATATAGTCTTAACTGTCTTAGGAAAAGGCAGTAGAGATAGGATGAGATAACAGT (double strand) [capD promoter (Cy5.5-capD)] | binds

— paper PMC10714720
